Results as given in publication PMC7828395, “Mapping the DNA-Binding Motif of Scabin Toxin, a Guanine Modifying Enzyme from Streptomyces scabies” (Toxins, 2021).

Tested on: Nc1nc2c(ncn2[C@@H]2O[C@H](COP(=O)(O)O)[C@@H](O)[C@H]2O)c(=O)[nH]1
Assay: purified protein
Settings: pH 7.9

(Streptomyces scabiei 87.22)
K0.5: 289 ± 18 µM | kcat: >3 s⁻¹
